Results taken from patent US20090232803A1 (Novartis, published 2009).
Blank lines part the entries; values can stand above or below the binder they belong to.

Columns and labels:
[1] = molecular target: T1, recombinant human IL-1β (human, UniProt P01584 117-269); assay: Biacore competition: AAL160 immobilised on the chip, recombinant human IL-1β (8 nM) injected with increasing concentrations of soluble receptor type I; readout is % binding of IL-1β to AAL160 (competitor: AAL160)
T1 construct: mature; it is entered under this molecule; also called human interleukin 1 beta; huIL-1β

[2] = molecular target: T1, recombinant human IL-1β; assay: BIAcore SPR; AAL160 immobilised, recombinant IL-1β 0.5 to 12 nM, 1:1 model, n = 15
Description: Data analysis is performed using the BIAevaluation software.

[3] = molecular target: T1, recombinant human IL-1β; assay: cell-based or functional assay
[4] = molecular target: T2, Rat IL-1β (rat, UniProt Q63264 117-268); assay: Biacore, AAL160 immobilised
T2 sequence (looked up): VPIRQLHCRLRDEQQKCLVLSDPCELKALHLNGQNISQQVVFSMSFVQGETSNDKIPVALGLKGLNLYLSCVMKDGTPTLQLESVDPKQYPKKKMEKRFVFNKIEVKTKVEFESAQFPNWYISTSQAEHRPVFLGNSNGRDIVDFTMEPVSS

[5] = molecular target: T3, Mouse IL-1β (mouse, UniProt P10749 118-269); assay: Biacore, AAL160 immobilised
T3 construct: also called murine IL-1β
T3 sequence (looked up): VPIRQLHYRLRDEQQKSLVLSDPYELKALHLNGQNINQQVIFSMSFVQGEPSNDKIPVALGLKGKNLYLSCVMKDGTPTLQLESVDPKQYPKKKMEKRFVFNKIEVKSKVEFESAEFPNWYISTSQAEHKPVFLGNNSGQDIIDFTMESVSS

[6] = molecular target: T4, Human IL-1Ra (human, UniProt P18510 26-177); assay: Biacore, AAL160 immobilised
T4 construct: also called IL-1 receptor antagonist
T4 sequence (P18510 26-177 limits assumed): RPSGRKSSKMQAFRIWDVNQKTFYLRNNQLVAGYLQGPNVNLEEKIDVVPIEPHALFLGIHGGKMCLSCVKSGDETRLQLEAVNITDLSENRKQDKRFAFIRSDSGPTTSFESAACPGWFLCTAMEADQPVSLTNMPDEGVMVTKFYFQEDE

[7] = molecular target: T5, Human IL-1α (human, UniProt P01583 113-271); assay: Biacore, AAL160 immobilised
T5 sequence (looked up): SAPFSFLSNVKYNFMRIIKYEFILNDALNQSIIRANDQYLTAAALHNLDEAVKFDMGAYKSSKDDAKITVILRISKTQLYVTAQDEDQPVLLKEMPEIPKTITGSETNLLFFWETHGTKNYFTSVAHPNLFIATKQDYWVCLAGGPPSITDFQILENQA

[8] = molecular target: T6, Cynomolgus IL-1β (cynomolgus monkey, UniProt P79182 117-268); assay: Biacore; AAL160 immobilised, cytokine at 8 nM (or 20 nM in the case of IL-1β)
T6 construct: also called cynomolgus monkey IL-1β
T6 sequence (looked up): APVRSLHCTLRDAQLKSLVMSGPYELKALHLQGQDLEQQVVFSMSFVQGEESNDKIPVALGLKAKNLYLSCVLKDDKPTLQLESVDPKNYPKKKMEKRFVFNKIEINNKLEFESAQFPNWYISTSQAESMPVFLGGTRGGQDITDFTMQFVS

[9] = molecular target: T2, Rat IL-1β; assay: as above
[10] = molecular target: T3, Mouse IL-1β; assay: as above
[11] = molecular target: T4, Human IL-1Ra; assay: as above
[12] = molecular target: T5, Human IL-1α; assay: as above
[13] = molecular target: T1, recombinant human IL-1β; assay: as above

IC50 [1]: 3.4 nM
B1: recombinant human soluble IL-1 receptor type I (receptor, UniProt P14778 18-332, looked up)
chain: LEADKCKEREEKIILVSSANEIDVRPCPLNPNEHKGTITWYKDDSKTPVSTEQASRIHQHKEKLWFVPAKVEDSGHYYCVVRNSSYCLRIKISAKFVENEPNLCYNAQAIFKQKLPVAGDGGLVCPYMEFFKNENNELPKLQWYKDCKPLLLDNIHFSGVKDRLIVMNVAEKHRGNYTCHASYTYLGKQYPITRVIEFITLEENKPTRPVIVSPANETMEVDLGSQIQLICNVTGQLSDIAYWKWNGSVIDEDDPVLGEDYYSVENPANKRRSTLITVLNISEIESRFYKHPFTCFAKNTHGIDAAYIQLIYPVT
notes: soluble; also called soluble IL-1 type I receptor; receptor I

Kd [2]: 0.397 nM
koff [2]: 0.000153 s⁻¹
kon [2]: 391000 M⁻¹ s⁻¹
IC50, IL-6 secretion, Recombinant (primary human dermal fibroblasts stimulated with recombinant IL-1β) [3]: 0.34 nM
IC50, IL-6 secretion, cond. Medium (primary human dermal fibroblasts stimulated with conditioned medium of LPS-stimulated human PBMCs, natural IL-1β) [3]: 0.6 nM
IC50, PGE2 production, cond. Medium (primary human dermal fibroblasts stimulated with conditioned medium of LPS-stimulated human PBMCs, natural IL-1β) [3]: 0.79 nM
Percent of total binding [8]: 96.4%
Percent of total binding [9]: 3%
Percent of total binding [10]: 2.8%
Percent of total binding [11]: 1.2%
Percent of total binding [12]: 0.7%
Percent of total binding [13]: 100%
B2: AAL160 antibody (human IgG1/κ monoclonal antibody to human IL-1β) (antibody, V domains shown)
VH: EVQLVQSGAEVKKPGESLKISCKGSGYSFTSYWIGWVRQMPGKGLEWMGIIYPSDSDTRYSPSFQGQVTISADKSISTAYLQWSSLKASDTAMYYCARYTNWDAFDIWGQGTMVTVSS
VL: EIVLTQSPATLSLSPGERATLSCRASQSVSSYLAWYQQKPGQAPRLLIYDASNRATGIPARFSGSGSGTDFTLTISSLEPEDFAVYYCQQRSNWMFPFGQGTKLEIK
notes: It was purified from hybridoma supernatant on protein A; also called NVP AAL 160 NX-1; hybridoma # 476
binding result [4]: no binding (tested: 8 nM (or 20 nM in the case of IL-1β))
binding result [5]: no binding (tested: 8 nM (or 20 nM in the case of IL-1β))
binding result [6]: no binding (tested: 8 nM (or 20 nM in the case of IL-1β))
binding result [7]: no binding (tested: 8 nM (or 20 nM in the case of IL-1β))
